Assays:
[1] = Robotic quantitative screen of E. coli lysates: luminescence activity (Li), expression/specific activity; type: biochemical; details: relative value
Experimental: A plate containing cells is retrieved from the carousel and placed on the shaker for 3-5 minutes to fully mix the cells. The cells tend to settle from solution upon standing.
To measure Optical Density (O.D.), the plate is moved from the shaker to the locator near the luminometer; the lid is removed and the plate placed into the luminometer. The O.D. is measured using a 620 nm filter.
To prepare a cell lysate, the plate of cells is first retrieved from the refrigerator and mixed on the shaker to resuspend the cells. A new plate from the carousel without a lid is placed in the reagent dispenser and 20 μl of Buffer A is added to each well. This is placed in the pipetting station.
The plate is then moved to the reagent dispenser to add 175 μl of Buffer B, and then mixed on the shaker for about 15 minutes or more. The combination of the freeze/thaw and Buffer B will cause the cells to lyse.
(§1) One daughter plate is placed in the luminometer and the 1X assay method is used. After the assay, the plate is placed in the ambient incubator, and the second daughter plate is placed in the luminometer. For the second plate, the 0.02X assay method is used. This plate is discarded, and the first plate is returned from the incubator to the luminometer. The repeat assay method is used (i.e., no reagent is injected). Afterwards, the plate is again returned to the ambient incubator.
1X Assay reagent: 5 μM Luciferin; 175 μM ATP; 20 mM Tricine, pH 8.0; 0.1 mM EDTA
(§2) The following criteria were used for screening purposes. The temperature chosen for the enzyme stability parameter was such that the parent enzyme would decay 100 to 1000 fold over 10 hours (see Table 1). Criteria 1 is achieved manually; data for criteria 2-6 is generated by robotic analysis. For all criteria, the maximum value as described is selected. • 1. In vivo screen. The brightest clones are selected at a given temperature. • 2. Expression/specific activity. The value for normalized luminescence is calculated as the ratio of luminescence to optical density. The value is reported as the ratio with the reference value. • 3. Enzyme stability. Measurements of normalized luminescence of the incubated samples (3 taken over about 15 hours) are fitted to In(L)=In(L0)−(t/τ), where L is normalized luminescence and t is time. τ is a measure of the enzyme stability. The value is reported as the ratio with the reference value, and the correlation coefficients are calculated. • 4. Substrate binding. Measurements of normalized luminescence with 1X and 0.02X are taken at the initial reading set, and 1X and 0.06X are taken at the 5 hour set. The ratio of the 0.02X:1X and 0.06X:1X gives the relative luminescence at 0.02X and 0.06X concentrations. These values, along with the relative luminescence at 1X (i.e., 1), are fitted to a Lineweaver-Burk plot to yield the Km:app,total for the substrates ATP, luciferin, and CoA. The values are reported as the inverse ratio with the reference value, and the correlation coefficients are calculated. • 5. Signal stability. The luminescence of the initial IX luminescent reactions are re-measured 3 additional times over about 15 hours. These values are fitted to In(L)=In(L0)−(t/τ) and the integral over t (15 hours) is calculated. Signal stability is then calculated as S=(1−int(L)/L0t)^2. The values are reported as the inverse ratio with the reference value, and the correlation coefficients are calculated. • 6. Composite fitness. The values of criteria 2 through 5 are combined into a single composite value of fitness (or commercial utility). This value is based on a judgment of the relative importance of the other criteria. This judgment is given below:
Normalize luminescence data: For each measurement of luminescence in the eight daughter plates, the normalized luminescence is calculated by dividing the relative light units by the optical density of the original plate. […]

[2] = Robotic quantitative screen of E. coli lysates: enzyme stability (tau) at elevated temperature; type: physicochemical; details: relative value
Experimental: Two white assay plates (Labsystems #9502887) are obtained from the plate feeder and placed in the pipetter. The incubation plate from the shaker is placed in the pipetter, and the lid removed and placed on the nearby locator. Two daughter plates are made using the pipetting procedure (see “Create Pair of Daughter Plates from Incubation Plate”). Afterwards, the lid is replaced on the parent plate, and the plate is placed in a high temperature incubator. [ranging from 31° C. to about 65° C. depending on the clone.]
To begin the second set of measurements, the plate from the high temperature incubator is placed in the shaker to mix.
In the final set of measurements, the plate from the high temperature incubator is again placed in the shaker to mix.
as §2
Calculate enzyme stability (τ): For each sample, use linear regression to fit In(L1x)=In(L0)−(t/τ) using the three luminescence measurements with 1X substrate concentrations (Plates 1, 5, 8). Also calculate the regression coefficient.
Calculate the reference-normalized values: For the criteria parameter of each sample, a reference-normalized value is determined by calculating the ratio or inverse ratio with the respective reference value. The reference-normalized values are Li/Lir, τ/τr, Kmr/Km:app,total, and Sr/S, where reference values are calculated from the equations of the appropriate reference surface.
“Enzyme stability” was determined by the rate of activity loss from cell lysates over 10 hours. In successive rounds of evolution the incubation temperature of the lysates was increased.
Robotic Automation: Robotic automation was used in the quantitative screens to accurately perform the large number of required quantitative assays on the cultured cells. […]

[3] = Robotic quantitative screen of E. coli lysates: signal stability (S), sustained enzymatic turnover; type: biochemical; details: inverse ratio with reference
Experimental: as §1
The plate in the ambient incubator is returned to the luminometer and the repeat assay method is again used. The plate is returned afterwards to the ambient incubator.
The plate in the ambient incubator is returned to the luminometer and the repeat assay method is again used. The plate is discarded afterwards.
as §2
Calculate signal stability (S): For each sample, use linear regression to fit In(L)=In(L0)[…] using the four luminescence measurements of the initial microplate with 1X substrate concentrations (Plates 1, 3, 4, and 7). Also calculate the regression coefficient. From the calculated values of T and L0, calculate the integral of luminescence by int(L)=τL0(1−exp(−tf/τ)), where tf is the average time of the last measurement (e.g., 15 hours). The signal stability is calculated as S=(1−int(L)/Litf)^2, where Li is the initial measurement of normalized luminescence with 1× substrate concentration (Plate 1).
[Note: To correct for evaporation, an equation S=(1+K−int(L)/Litf)^2, may be used where 1/K=2(relative change of liquid volume at tf).]
Calculate the reference-normalized values: For the criteria parameter of each sample, a reference-normalized value is determined by calculating the ratio or inverse ratio with the respective reference value. […]

[4] = Control is Luc46-2H3 at 54° C. (=1)
[5] = Control is Luc71-5D4 at 60° C. (=1)
[6] = Control is Luc84-3A6 at 64° C. (=1)

Row | Molecule | Luminescence (Li) [1, 4] | Enzyme stability (tau) [2, 4] | Signal stability (S) [3, 4] | Luminescence (Li) [1, 5] | Enzyme stability (tau) [2, 5] | Signal stability (S) [3, 5] | also measured
1 | 49-6c10: mutant luciferase, SEQ ID NO:15 (protein, Mutant luciferase) MEDKNILYGPEPFYPLADGTAGEQMFYALSRYADISGCIALTNAHTKENVLYEELLKLSCRLAESFKKYGLKQNDTIAVCSENGLQFFLPIIASLYLGIIAAPVSDKYIERELIHSLGIVKPRIIFCSKNTFQKVLNVKSKLKYVETIIILDLNEDLGGYQCLNNFISQNSDINLDVKKFKPYSFNRDDQVALVMFSSGTTGVSKGVMLTHKNIVARFSHAKDPTFGNAINPTTAILTVIPFHHGFGMMTTLGYFTCGFRVVLMHTFEEKLFLQSLQDYKVESTLLVPTLMAFFAKSALVEKYDLSHLKEIASGGAPLSKEIGEMVKKRFKLNFVRQGYGLTETTSAVLITPNNDVRPGSTGKIVPFHAVKVVDPTTGKILGPNETGELYFKGDMIMKGYYNNEEATKAIINKDGWLRSGDIAYYDNDGHFYIVDRLKSLIKYKGYQVAPAEIEGILLQHPYIVDAGVTGIPDEAAGELPAAGVVVQTGKYLNEQIVQNFVSSQVSTAKWLRGGVKFLDEIPKGSTGKIDRKVLRQMFEKHTNG | 0.57 | 2.2 | 1 |  |  |  | 
2 | 49-0g12: mutant luciferase, SEQ ID NO:16 (protein, Mutant luciferase) MEDKNILYGPEPFYPLADGTAGEQMFYALSRYADISGCIALTNAHTKENVLYEEFLKLSCRLAESFKKYGLKQNDTIAVCSENGLQFFLPIIASLYLGIIAAPVSDKYIERELIHSLGIVKPRIIFCSKNTFQKVLNVKSKLKYVETIIILDLNEDLGGYQCLNNFISQNSDINLDVKKFKPYSFNRDDQVALVMFSSGTTGVSKGVMLTHKNIVVRFSLAKDPTFGNAINPTTAILTVIPFHHGFGMMTTLGYFTCGFRVVLMHTFEEKLFLQSLQDYKVESTLLVPTLMAFFAKSALVEKYDLSHLKEIASGGAPLSKEIGEMVKKRFKLNFVRQGYGLTETTSAVLITPNNDVRPGSTGKIVPFHAVKVVDPTTGKILGPNETGELYFKGDMIMKGYYNNEEATKAIITKDGWLRSGDIAYYDNDGHFYIVDRLKSLIKYKGYQVAPAEIEGILLQHPYIVDAGVTGIPDEAAGELPAAGVVVQTGKYLNEQIVQNFVSSQVSTAKWLRGGVKFLDEIPKGSTGKIDRKVLRQMFEKHTNG | 1 | 1.58 | 1.08 |  |  |  | 
3 | 78-1e1-: mutant luciferase, SEQ ID NO:21 (protein, not fully specified; X: residue not identified in the source) MADKNILYGPEPFYPLADGTAGEQMFDALSRYADIPGCIALTNAHTKENVLYEEFLKLSCRLAESFKKYGLKQNDTIAVCSENGLQYFLPVIASLYLGIIAAPVSDKYIERELIHSLGIVKPRIIFCSKNTFQKVLNVKSKLKYVETIIILDLNEDLGGYQCLNNFISQNSDINLDVKKFKPNSFNRDDQVALVMFSSGTTGVPKGVMLTHKNIVARFSIAKDPTFGNAINPTTAILTVIPFHHGFGMMTTLGYFTCGFRVVLMHTFEEKLFLQSLQDYKVESTLLVPTLMAFLAKSALVEKYDLSHLKEIASGGAPLSKEIGEMVKKRFKLNFVRQGYGLTETTSAVLITPKXXARPGSTGKIVPFHAVKVVDPTTGKILGPNEPGELYFKGAMIMKGYYNNEEATKAIIDKDGWLRSGDIAYYDNDGHFYIVDRLKSLIKYKGYQVAPAEIEGILLQHPYIVDAGVTGIPDEAAGELPAAGVVVQTGKYLNEQIVQNFVSSQVSTAKWLRGGVKFLDEIPKGSTGKIDRKVLRQMFEKHTNG |  |  |  | 0.54 | 8.9 | 0.9877 | 
4 | 78-2b4: mutant luciferase, SEQ ID NO:22 (protein, not fully specified; X: residue not identified in the source) MADKNILYGPEPFYPLADGTAGEQMFDALSRYADIPGCIALTNAHTKENVLYEEFLKLSCRLAESFKKYGLKQNDTIAVCSENGLQFFLPVIASLYLGIIAAPVSDKYVERELIHSLGIVKPRIIFCSKNTFQKVLNVKSKLKYVETIIILDLNEDLGGYQCLNNFISQNSDSNLDVKKFKPNSFNRDDQVALVMFSSGTTGVPKGVMLTHKNIVARFSLAKDPTFGNAINPTTAILTVIPFHHGFGMMTTLGYFTCGFRVVLMHTFEEKLFLQSLQDYKVESTLLVPTLMAFLAKSALVEKYDLSHLKEIASGGAPLSKEIGEMVKKRFKLNFVRQGYGLTETTSAVLITPKXXARPGSTGKIVPFHAVKVVDPTTGKILGPNETGELYFKGAMIMKGYYNNEEATKAIIDKDGWLRSGDIAYYDNDGHFYIVDRLKSLIKYKGYQVAPAEIEGILLQHPYIVDAGVTGIPDEAAGELPAAGVVVQTGKYLNEQIVQNFVSSQVSTAKWLRGGVKFLDEIPKGSTGKIDRKVLRQMFEKHTNG |  |  |  | 1.97 | 1.36 | 1.0094 | 
5 | 85(86)-4f12: mutant luciferase, SEQ ID NO:23 (protein, not fully specified; X: residue not identified in the source) MADKNILYGPEPFYPLADGTAGEQMFDALSRYADIPGCIALTNAHTKENVLYEEFLKLSCRLAESFKKYGLKQNDTIAVCSENGLQFFLPVIASLYLGIIVAPVNDKYIERELIHSLGIVKPRIIFCSKNTFQKVLNVKSKLKSVETIIILDLNEDLGGYQCLNNFISQNSDINLDVKKFKPYSFNRDDQVALIMFSSGTTGLPKGVMLTHKNIVARFSLAKDPTFGNAINPTTAILTVIPFHHGFGMMTTLGYFTCGFRVVLMHTFEEKLFLQSLQDYKVESTLLVPTLMAFLAKSALVEKYDLSHLKEIASGGAPLSKEIGEMVKKRFKLNFVRQGYGLTETTSAVLITPKXXARPGSTGKIVPFHAVKVVDPTTGKILGPNEPGELYFKGPMIMKGYYNNEEATKAIIDNDGWLRSGDIAYYDNDGHFYIVDRLKSLIKYKGYQVAPAEIEGILLQHPYIVDAGVTGIPDEAAGELPAAGVVVQTGKYLNEQIVQDFVSSQVSTAKWLRGGVKFLDEIPKGSTGKIDRKVLRQMFEKHTNG |  |  |  |  |  |  | Luminescence (Li) [1, 6]: 1.1167; Enzyme stability (tau) [2, 6]: 4.7851; Signal stability (S) [3, 6]: 1.0092

From patent publication US8030017B2, “Thermostable luciferases and methods of production” (Promega Corporation, priority 1997, dated 2011)
